From US20110097270A1

How the values were obtained:
[1] = target: hepatitis B surface antigen (HBsAg), purified from human plasma (hepatitis B virus); assay: indirect competition ELISA on HBsAg-coated wells; highest attainable concentration of unlabeled Fab; competitor: biotinylated HBV#8 Fab
[2] = target: hepatitis B surface antigen (HBsAg), purified from human plasma (hepatitis B virus); assay: competition inhibition ELISA: free HBsAg against HBsAg-coated wells; I50 of antigen multiplied by 100
[3] = target: hepatitis B surface antigen (HBsAg), purified from human plasma (hepatitis B virus); assay: indirect competition ELISA on HBsAg-coated wells; highest attainable concentration of unlabeled Fab; competitor: HBV#8 IgG
[4] = target: hepatitis B surface antigen (HBsAg), purified from human plasma (hepatitis B virus); assay: competition inhibition ELISA; Kd of the IgG against Kd of the Fab

hepatitis B surface antigen (HBsAg), purified from human plasma (hepatitis B virus), sequence (P03141 175-400): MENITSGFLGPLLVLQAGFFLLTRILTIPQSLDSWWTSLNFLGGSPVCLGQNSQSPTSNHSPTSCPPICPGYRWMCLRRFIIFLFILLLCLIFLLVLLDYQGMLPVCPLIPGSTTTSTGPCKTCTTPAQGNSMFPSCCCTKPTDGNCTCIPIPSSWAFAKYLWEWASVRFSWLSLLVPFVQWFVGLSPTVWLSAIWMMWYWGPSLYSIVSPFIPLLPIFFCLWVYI

| Binder | percent inhibition of binding [1] [%] | Kd [2] [nM] | percent inhibition of binding [3] [%] | fold improvement of affinity (IgG against Fab) [4] [fold] |
| --- | --- | --- | --- | --- |
| HBV#8 Fab (Fab, V domains shown) VH: EVQLLESGPGLVKPSQTLSLTCAVSGAFMTSDYLYWSWLRQPPGKGPEWIGGIYTTGRSHYNPSLRGRATLSVDTSKNQFSLELNSVTAADTAVYYCARGQYHNWGPSLFDYYNYYYMDVWGKGTTVTVSS VL: AAELTQSPSSLSASVGDRVTITCRASQDISNYLAWYQQKPGKAPKLLIYSASRLQSGVPSRFSGSGSGTDYTLTLSSLHPEDSATYYCHQYHSAPWTFGQGTKVEIKR | 66 | 1900 | 57 | – |
| HBV#8 IgG (antibody, V domains shown) VH: EVQLLESGPGLVKPSQTLSLTCAVSGAFMTSDYLYWSWLRQPPGKGPEWIGGIYTTGRSHYNPSLRGRATLSVDTSKNQFSLELNSVTAADTAVYYCARGQYHNWGPSLFDYYNYYYMDVWGKGTTVTVSS VL: AAELTQSPSSLSASVGDRVTITCRASQDISNYLAWYQQKPGKAPKLLIYSASRLQSGVPSRFSGSGSGTDYTLTLSSLHPEDSATYYCHQYHSAPWTFGQGTKVEIKR | – | 25 | – | 75 |
